{"source": "paper PMC13426413", "about": "(Science Advances, 2026)", "target": "human Hsp90α (residues 1–732) (human, UniProt P07900 1-732)", "assay": "ITC", "data": [{"binder": "Tom70:Orf9b_(Helix) complex (complex) chain 1: MNSLDRAQAAKNKGNKYFKAGKYEQAIQCYTEAISLCPTEKNVDLSTFYQNRAAAFEQLQKWKEVAQDCTKAVELNPKYVKALFRRAKAHEKLDNKKECLEDVTAVCILEGFQNQQSMLLADKVLKLLGKEKAKEKYKNREPLMPSPQFIKSYFSSFTDDIISQPMLKGEKSDEDKDKEGEALEVKENSGYLKAKQYMEEENYDKIISECSKEIDAEGKYMAEALLLRATFYLLIGNANAAKPDLDKVISLKEANVKLRANALIKRGSMYMQQQQPLLSTQDFNMAADIDPQNADVYHHRGQLKILLDQVEEAVADFDECIRLRPESALAQAQKCFALYRQAYTGNNSSQIQAAMKGFEEVIKKFPRCAEGYALYAQALTDQQQFGKADEMYDKCIDLEPDNATTYVHKGLLQLQWKQDLDRGLELISKAIEIDNKCDFAYETMGTIEVQRGNMEKAIDMFNKAINLAKSEMEMAHLYSLCDAAHAQTEVAKKYGLKPPTL chain 2: IILRLGSPLSLNMARKTLNSLEDKAFQLTPIAVQY", "values": [{"measurement": "binding result", "result": "binds"}]}]}
